B1: Melanophilin (Homo sapiens), Q9BV36 (parent)
chain: MGKKLDLSKLTDEEAQHVLEVVQRDFDLRRKEEERLEALKGKIKKESSKRELLSDTAHLNETHCARCLQPYQLLVNSKRQCLECGLFTCKSCGRVHPEEQGWICDPCHLARVVKIGSLEWYYEHVKARFKRFGSAKVIRSLHGRLQGGAGPELISEERSGDSDQTDEDGEPGSEAQAQAQPFGSKKKRLLSVHDFDFEGDSDDSTQPQGHSLHLSSVPEARDSPQSLTDESCSEKAAPHKAEGLEEADTGASGCHSHPEEQPTSISPSRHGALAELCPPGGSHRMALGTAAALGSNVIRNEQLPLQYLADVDTSDEESIRAHVMASHHSKRRGRASSESQIFELNKHISAVECLLTYLENTVVPPLAKGLGAGVRTEADVEEEALRRKLEELTSNVSDQETSSEEEEAKDEKAEPNRDKSVGPLPQADPEVGTAAHQTNRQEKSPQDPGDPVQYNRTTDEELSELEDRVAVTASEVQQAESEVSDIESRIAALRAAGLTVKPSGKPRRKSNLPIFLPRVAGKLGKRPEDPNADPSSEAKAMAVPYLLRRKFSNSLKSQGKDDDSFDRKSVYRGSLTQRNPNARKGMASHTFAKPVVAHQS

Variants of: B1
Conditions: with rb27a_human RAB27A

Variant	effect of a mutation on the interaction
MGKKLDLSKLTDEEAQHVLEVVQRDFDLRRKEEEWLEALKGKIKKESSKRELLSDTAHLNETHCARCLQPYQLLVNSKRQCLECGLFTCKSCGRVHPEEQGWICDPCHLARVVKIGSLEWYYEHVKARFKRFGSAKVIRSLHGRLQGGAGPELISEERSGDSDQTDEDGEPGSEAQAQAQPFGSKKKRLLSVHDFDFEGDSDDSTQPQGHSLHLSSVPEARDSPQSLTDESCSEKAAPHKAEGLEEADTGASGCHSHPEEQPTSISPSRHGALAELCPPGGSHRMALGTAAALGSNVIRNEQLPLQYLADVDTSDEESIRAHVMASHHSKRRGRASSESQIFELNKHISAVECLLTYLENTVVPPLAKGLGAGVRTEADVEEEALRRKLEELTSNVSDQETSSEEEEAKDEKAEPNRDKSVGPLPQADPEVGTAAHQTNRQEKSPQDPGDPVQYNRTTDEELSELEDRVAVTASEVQQAESEVSDIESRIAALRAAGLTVKPSGKPRRKSNLPIFLPRVAGKLGKRPEDPNADPSSEAKAMAVPYLLRRKFSNSLKSQGKDDDSFDRKSVYRGSLTQRNPNARKGMASHTFAKPVVAHQS [R35W]	disrupting interaction

Variants of: B1
Conditions: with rb27a_human RAB27A
Remark: another data set of the same source

Variant	effect of a mutation on the interaction
MGKKLDLSKLTDEEAQHVLEVVQRDFDLRRKEEEFLEALKGKIKKESSKRELLSDTAHLNETHCARCLQPYQLLVNSKRQCLECGLFTCKSCGRVHPEEQGWICDPCHLARVVKIGSLEWYYEHVKARFKRFGSAKVIRSLHGRLQGGAGPELISEERSGDSDQTDEDGEPGSEAQAQAQPFGSKKKRLLSVHDFDFEGDSDDSTQPQGHSLHLSSVPEARDSPQSLTDESCSEKAAPHKAEGLEEADTGASGCHSHPEEQPTSISPSRHGALAELCPPGGSHRMALGTAAALGSNVIRNEQLPLQYLADVDTSDEESIRAHVMASHHSKRRGRASSESQIFELNKHISAVECLLTYLENTVVPPLAKGLGAGVRTEADVEEEALRRKLEELTSNVSDQETSSEEEEAKDEKAEPNRDKSVGPLPQADPEVGTAAHQTNRQEKSPQDPGDPVQYNRTTDEELSELEDRVAVTASEVQQAESEVSDIESRIAALRAAGLTVKPSGKPRRKSNLPIFLPRVAGKLGKRPEDPNADPSSEAKAMAVPYLLRRKFSNSLKSQGKDDDSFDRKSVYRGSLTQRNPNARKGMASHTFAKPVVAHQS [R35F]	disrupting interaction
MGKKLDLSKLTDEEAQHVLEVVQRDFDLRRKEEEVLEALKGKIKKESSKRELLSDTAHLNETHCARCLQPYQLLVNSKRQCLECGLFTCKSCGRVHPEEQGWICDPCHLARVVKIGSLEWYYEHVKARFKRFGSAKVIRSLHGRLQGGAGPELISEERSGDSDQTDEDGEPGSEAQAQAQPFGSKKKRLLSVHDFDFEGDSDDSTQPQGHSLHLSSVPEARDSPQSLTDESCSEKAAPHKAEGLEEADTGASGCHSHPEEQPTSISPSRHGALAELCPPGGSHRMALGTAAALGSNVIRNEQLPLQYLADVDTSDEESIRAHVMASHHSKRRGRASSESQIFELNKHISAVECLLTYLENTVVPPLAKGLGAGVRTEADVEEEALRRKLEELTSNVSDQETSSEEEEAKDEKAEPNRDKSVGPLPQADPEVGTAAHQTNRQEKSPQDPGDPVQYNRTTDEELSELEDRVAVTASEVQQAESEVSDIESRIAALRAAGLTVKPSGKPRRKSNLPIFLPRVAGKLGKRPEDPNADPSSEAKAMAVPYLLRRKFSNSLKSQGKDDDSFDRKSVYRGSLTQRNPNARKGMASHTFAKPVVAHQS [R35V]	disrupting interaction
MGKKLDLSKLTDEEAQHVLEVVQRDFDLRRKEEEKLEALKGKIKKESSKRELLSDTAHLNETHCARCLQPYQLLVNSKRQCLECGLFTCKSCGRVHPEEQGWICDPCHLARVVKIGSLEWYYEHVKARFKRFGSAKVIRSLHGRLQGGAGPELISEERSGDSDQTDEDGEPGSEAQAQAQPFGSKKKRLLSVHDFDFEGDSDDSTQPQGHSLHLSSVPEARDSPQSLTDESCSEKAAPHKAEGLEEADTGASGCHSHPEEQPTSISPSRHGALAELCPPGGSHRMALGTAAALGSNVIRNEQLPLQYLADVDTSDEESIRAHVMASHHSKRRGRASSESQIFELNKHISAVECLLTYLENTVVPPLAKGLGAGVRTEADVEEEALRRKLEELTSNVSDQETSSEEEEAKDEKAEPNRDKSVGPLPQADPEVGTAAHQTNRQEKSPQDPGDPVQYNRTTDEELSELEDRVAVTASEVQQAESEVSDIESRIAALRAAGLTVKPSGKPRRKSNLPIFLPRVAGKLGKRPEDPNADPSSEAKAMAVPYLLRRKFSNSLKSQGKDDDSFDRKSVYRGSLTQRNPNARKGMASHTFAKPVVAHQS [R35K]	disrupting interaction

From IntAct's records for PubMed 12897212
